# Measurements from article PMC6133441.
# Molecular target: human recombinant galectin-9, medium isoform (gal-9M) (human) (UniProt O00182)
# Test: SPR; Biacore T200; gal-9M covalently bound to a CM5 chip (NHS/EDC, 10 μg/mL, pH 5, acetate buffer); Gal-Nab1 and Gal-Nab2 as analytes, 1.5 to 400 nM, 40 μL/min, 400 s, albumin 0.1 mg/mL and tween 0.05%; dissociation 500 s; the paper says the KD reflects avidity rather than affinity (apparent)
# human recombinant galectin-9, medium isoform (gal-9M) (human), sequence (O00182 other isoform, or with tags, fused parts or gaps): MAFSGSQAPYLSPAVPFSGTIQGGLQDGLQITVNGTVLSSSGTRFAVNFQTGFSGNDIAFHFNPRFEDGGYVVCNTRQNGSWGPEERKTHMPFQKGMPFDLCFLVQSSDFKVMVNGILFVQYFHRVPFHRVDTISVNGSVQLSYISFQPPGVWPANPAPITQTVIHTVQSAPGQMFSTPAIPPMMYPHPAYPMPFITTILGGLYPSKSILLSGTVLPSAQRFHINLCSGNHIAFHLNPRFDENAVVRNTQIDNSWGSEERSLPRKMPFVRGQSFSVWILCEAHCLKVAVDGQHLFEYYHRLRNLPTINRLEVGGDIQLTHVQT
binder,measurement,value
"Gal-Nab1 (antibody, V domains shown) VH: KVQLQQSGAELVKPGASVKLSCKASGYTFTDYTIHWVKQRSGQGLEWIGWFYPGSHSIKYNEQFKDRATLTADKSSSTVYMELSRLTSEDSAVYFCTRHGGYDGFDYWGQGTTLTVSS VL: DIVMSQSPSSLAVSVGEKITMSCKSSQSLFYSTNQKNYLAWYQQKPGQSPKLLIYWASTRESGVPDRFTGSGSGTDFTLTISSVKAEDLAVYYCQQYYYFPYTFGGGTKLEIK",Kd,4.34 nM
same,koff,0.000115 s⁻¹
same,kon,26500 M⁻¹ s⁻¹
same,t1/2,2.07 h
